1 molecule from PMC10000386 can be followed below.

For this experiment, the target named is T1, Bak ΔBH3, Q16611.
T1 chain: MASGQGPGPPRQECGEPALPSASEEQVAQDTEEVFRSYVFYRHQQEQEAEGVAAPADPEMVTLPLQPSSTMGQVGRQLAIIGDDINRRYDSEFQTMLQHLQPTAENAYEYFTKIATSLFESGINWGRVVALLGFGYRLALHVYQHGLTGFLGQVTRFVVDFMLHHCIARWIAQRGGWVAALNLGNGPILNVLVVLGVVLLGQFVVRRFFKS
Nature of the experiment: BiFC (flow cytometry). As to conditions: chain shown with the change; 6 independent experiments; read off a plot. For orientation: A flow cytometer gives signals particle by particle.

Changes are numbered by the printed parent chain. Numbers in names are those of the source.

B1: Bak, Q16611 H164A (protein)
chain: T1 chain with H164A
As to B1, the response (Mean Venus/Mean mRFP) was 0.95.
